From patent US20130089557A1 (SAMSUNG ELECTRONICS, published 2013)
Each block holds one binder with its values, some of them ahead of it.

Legend:
[1] = biological target: c-Met on MKN45 gastric cancer cells and on Caki-1 cells (human, UniProt P08581 25-1390); assay: cell-based or functional assay
[2] = biological target: T1, EEPAQ peptide (SEQ ID NO: 81); assay: SPR (Biacore), huAbF46 on CM5 chip, peptide injected 0.39-100 nM
T1 peptide: EEPAQ

[3] = biological target: T2, EEPSQ peptide (SEQ ID NO: 3); assay: as above
T2 construct: the range is one residue short
T2 peptide: EEPSQ

[4] = biological target: T3, CPQIEDPSQAC (SEQ ID NO: 73); assay: PEPSCAN peptide ELISA
T3 peptide: CPQIEDPSQAC
Description: (§1) For epitope mapping, PEPSCAN-based ELISA was performed using a total number of 529 linear and CLIPS peptides. The peptides were maintained at room temperature for 30 minutes by using a 5% blocking solution to provoke a reaction (4% ovalbumin, 5% horse serum, and 1% Tween 80). […] Thereafter, the resultant product was treated with rabbit-anti-sheep antibody (SIGMA) and washed with PBS, and the washed product was then treated with peroxidase-attached swine-anti-rabbit antibody (SIGMA) and washed with PBS. Then, the resultant product was treated with 2 ul/ml of peroxidase 2,2′-azino-di-3-ethylbenzthiazoline sulfonate (ABTS)(SIGMA) in 3% H₂O₂, and a color reaction was measured after 1 hour.

[5] = biological target: T4, CQIEDPSQAPC (SEQ ID NO: 74); assay: PEPSCAN peptide ELISA
T4 peptide: CQIEDPSQAPC
Description: as §1

[6] = biological target: T5, CEDPSQAPDAC (SEQ ID NO: 76); assay: PEPSCAN peptide ELISA
T5 peptide: CEDPSQAPDAC
Description: as §1

[7] = biological target: T6, CIEDPSQAPDC (SEQ ID NO: 75); assay: PEPSCAN peptide ELISA
T6 peptide: CIEDPSQAPDC
Description: as §1

[8] = biological target: T7, FSPQIEDPSQCPDCVVSALGAKVL (SEQ ID NO: 71); assay: PEPSCAN peptide ELISA
T7 construct: Peptide with the E168D mutation
T7 peptide: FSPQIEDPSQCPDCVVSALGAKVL
Description: as §1

[9] = biological target: T8, CSPQIEDPSQC (SEQ ID NO: 72); assay: PEPSCAN peptide ELISA
T8 peptide: CSPQIEDPSQC
Description: as §1

[10] = biological target: T9, AAAAA peptide (SEQ ID NO: 77); assay: SPR (Biacore), huAbF46 on CM5 chip, peptide injected
T9 peptide: AAAAA

[11] = biological target: T10, EEASQ peptide (SEQ ID NO: 80); assay: as above
T10 peptide: EEASQ

[12] = biological target: T11, EEPSA peptide (SEQ ID NO: 82); assay: as above
T11 peptide: EEPSA

[13] = biological target: T12, EAPSQ peptide (SEQ ID NO: 79); assay: as above
T12 peptide: EAPSQ

[14] = biological target: T13, AEPSQ peptide (SEQ ID NO: 78); assay: as above
T13 peptide: AEPSQ

human c-Met protein [15] = biological target: T14, human c-Met protein (human, UniProt P08581 25-932, limits assumed); assay: SPR (Biacore), against huAbF46 (Table 3)
T14 construct: also called c-Met antigen
T14 sequence (P08581 25-932 limits assumed): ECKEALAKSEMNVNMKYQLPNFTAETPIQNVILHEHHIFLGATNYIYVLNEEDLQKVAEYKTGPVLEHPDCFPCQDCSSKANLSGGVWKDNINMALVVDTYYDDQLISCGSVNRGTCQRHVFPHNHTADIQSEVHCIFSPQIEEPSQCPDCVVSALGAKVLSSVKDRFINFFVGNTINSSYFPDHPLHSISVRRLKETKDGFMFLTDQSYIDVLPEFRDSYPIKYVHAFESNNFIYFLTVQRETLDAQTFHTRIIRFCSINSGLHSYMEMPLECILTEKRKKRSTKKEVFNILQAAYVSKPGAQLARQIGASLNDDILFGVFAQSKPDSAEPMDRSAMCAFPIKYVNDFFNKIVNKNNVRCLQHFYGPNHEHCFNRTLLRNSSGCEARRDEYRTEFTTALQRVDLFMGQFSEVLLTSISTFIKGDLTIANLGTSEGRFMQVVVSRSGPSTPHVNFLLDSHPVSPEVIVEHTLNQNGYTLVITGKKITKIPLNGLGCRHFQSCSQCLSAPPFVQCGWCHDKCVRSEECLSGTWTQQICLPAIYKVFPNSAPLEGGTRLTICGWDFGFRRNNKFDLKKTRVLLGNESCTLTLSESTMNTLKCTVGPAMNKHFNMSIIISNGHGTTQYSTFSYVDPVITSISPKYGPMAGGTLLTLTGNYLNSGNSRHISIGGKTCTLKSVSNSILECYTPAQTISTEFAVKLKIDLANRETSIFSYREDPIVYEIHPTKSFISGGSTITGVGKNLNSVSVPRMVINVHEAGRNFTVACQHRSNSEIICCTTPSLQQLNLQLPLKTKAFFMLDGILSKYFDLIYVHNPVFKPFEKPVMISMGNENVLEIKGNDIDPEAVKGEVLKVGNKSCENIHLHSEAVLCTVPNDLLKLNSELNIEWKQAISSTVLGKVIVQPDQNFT
Description: Affinities of the 4 types of antibodies against c-Met antigen were measured by using a Biacore (GE healthcare). About 80 to 110 RU of each antibody was immobilized on a CM5 chip, and 9 different concentrations ranging from 0.39 nM to 100 nM of human c-Met protein, as an antigen, were injected at a rate of 30 ul/min to obtain kₒₙ values and koff values as shown in Table 3. Then, KD values were calculated based thereon.

human c-Met protein [16] = biological target: T14, human c-Met protein; assay: method not described

c-Met on MKN45 gastric cancer cells and on Caki-1 cells, sequence (P08581 25-1390): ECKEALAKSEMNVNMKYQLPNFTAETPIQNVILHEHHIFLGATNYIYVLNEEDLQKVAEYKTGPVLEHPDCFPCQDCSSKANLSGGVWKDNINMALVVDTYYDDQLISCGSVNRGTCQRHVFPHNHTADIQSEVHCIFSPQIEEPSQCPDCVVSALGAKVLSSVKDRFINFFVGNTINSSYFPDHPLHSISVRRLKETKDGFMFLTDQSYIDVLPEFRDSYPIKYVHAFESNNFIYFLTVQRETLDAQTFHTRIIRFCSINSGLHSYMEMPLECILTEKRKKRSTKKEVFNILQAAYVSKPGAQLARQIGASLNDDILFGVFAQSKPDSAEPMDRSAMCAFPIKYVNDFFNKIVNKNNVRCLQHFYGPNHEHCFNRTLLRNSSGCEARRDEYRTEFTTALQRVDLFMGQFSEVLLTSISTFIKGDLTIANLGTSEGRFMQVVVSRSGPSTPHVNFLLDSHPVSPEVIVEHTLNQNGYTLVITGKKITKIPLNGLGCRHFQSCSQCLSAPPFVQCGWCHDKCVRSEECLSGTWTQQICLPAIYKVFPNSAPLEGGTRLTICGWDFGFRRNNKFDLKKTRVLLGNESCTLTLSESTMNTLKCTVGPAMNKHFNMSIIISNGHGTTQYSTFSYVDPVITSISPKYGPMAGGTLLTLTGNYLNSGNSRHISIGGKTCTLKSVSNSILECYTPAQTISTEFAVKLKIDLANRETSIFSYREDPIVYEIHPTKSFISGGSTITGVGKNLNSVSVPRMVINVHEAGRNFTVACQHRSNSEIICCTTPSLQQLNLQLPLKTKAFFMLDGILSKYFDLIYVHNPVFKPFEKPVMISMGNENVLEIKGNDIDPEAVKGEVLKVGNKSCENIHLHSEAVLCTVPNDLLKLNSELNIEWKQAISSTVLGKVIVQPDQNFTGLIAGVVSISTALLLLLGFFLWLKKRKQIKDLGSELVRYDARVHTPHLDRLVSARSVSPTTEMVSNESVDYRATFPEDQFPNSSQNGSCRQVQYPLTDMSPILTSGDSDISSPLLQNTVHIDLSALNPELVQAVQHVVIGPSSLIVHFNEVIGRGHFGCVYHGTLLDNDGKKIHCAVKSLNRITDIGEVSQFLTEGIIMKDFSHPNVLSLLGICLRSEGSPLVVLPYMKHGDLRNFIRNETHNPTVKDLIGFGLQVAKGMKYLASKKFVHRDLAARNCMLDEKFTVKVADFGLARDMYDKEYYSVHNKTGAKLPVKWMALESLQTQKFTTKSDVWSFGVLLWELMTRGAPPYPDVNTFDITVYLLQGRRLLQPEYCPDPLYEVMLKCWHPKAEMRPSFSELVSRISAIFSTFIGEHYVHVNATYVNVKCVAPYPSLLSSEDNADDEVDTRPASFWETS

B1: huAbF46-H4-A5 (antibody, V domains shown)
VH: EVQLVESGGGLVQPGGSLRLSCAASGFTFTDYYMSWVRQAPGKGLEWLGFIRNKANGYTTEYSASVKGRFTISRDNSKNTLYLQMNSLRAEDTAVYYCARDNWFAYWGQGTLVTVSS
VL: DIQMTQSPSSLSASVGDRVTITCKSSQSLLASGNQNNYLAWHQQKPGKAPKMLIIWASTRVSGVPSRFSGSGSGTDFTLTISSLQPEDFATYYCQQSYSRPFTFGQGTKVEIKR
- degree of degradation of c-Met (total c-Met ELISA, MKN45 cells, 5 ug/ml antibody, 24 hours) [1]: ~28%

B5: huAbF46-H4-A1 (antibody, V domains shown)
VH: EVQLVESGGGLVQPGGSLRLSCAASGFTFTDYYMSWVRQAPGKGLEWLGFIRNKANGYTTEYSASVKGRFTISRDNSKNTLYLQMNSLRAEDTAVYYCARDNWFAYWGQGTLVTVSS
VL: DIQMTQSPSSLSASVGDRVTITCKSSQSLLASGNQNNYLAWHQQKPGKAPKMLIIWASTRVSGVPSRFSGSGSGTDFTLTISSLQPEDFATYYCQQSYSRPYTFGQGTKVEIKR
notes: IgG; also called IgG from clone L3-1
- degree of degradation of c-Met (total c-Met ELISA, MKN45 cells, 5 ug/ml antibody, 24 hours) [1]: ~37%
- fold improvement of affinity (human c-Met protein [15]): 37 times

B6: scFv of huAbF46 antibody (scFv)
scFv: EVQLVESGGGLVQPGGSLRLSCAASGFTFTDYYMSWVRQAPGKGLEWLGFIRNKANGYTTEYSASVKGRFTISRDNSKNTLYLQMNSLRAEDTAVYYCARDNWFAYWGQGTLVTVSSGLGGLGGGGSGGGGSGGSSGVGSDIQMTQSPSSLSASVGDRVTITCKSSQSLLASGNQNNYLAWHQQKPGKAPKMLIIWASTRVSGVPSRFSGSGSGTDFTLTISSLQPEDFATYYCQQSYSAPLTFGQGTKVEIKR
notes: 'VH-linker-VL' form; Tags or display fusion partner not described; also called wild-type antibody (scFv of huAbF46)
- binding result (human c-Met protein [16]): binds

The next lines start with results.

- Kd [2]: 1.43 nM
- Kd [3]: 1.64 nM
B2: humanized antibody huAbF46 (H4-heavy chain and H4-light chain) (antibody, human IgG1, kappa, V domains shown)
VH: EVQLVESGGGLVQPGGSLRLSCAASGFTFTDYYMSWVRQAPGKGLEWLGFIRNKANGYTTEYSASVKGRFTISRDNSKNTLYLQMNSLRAEDTAVYYCARDNWFAYWGQGTLVTVSS
VL: DIQMTQSPSSLSASVGDRVTITCKSSQSLLASGNQNNYLAWHQQKPGKAPKMLIIWASTRVSGVPSRFSGSGSGTDFTLTISSLQPEDFATYYCQQSYSAPLTFGQGTKVEIKR
notes: also called humanized antibody AbF46
- binding result [4]: no binding (tested: 1 to 100 ug/ml of huAbF46 antibody)
- binding result [5]: no binding (tested: 1 to 100 ug/ml of huAbF46 antibody)
- binding result [6]: no binding (tested: 1 to 100 ug/ml of huAbF46 antibody)
- binding result [7]: no binding (tested: 1 to 100 ug/ml of huAbF46 antibody)
- binding result [8]: no binding (tested: 1 to 100 ug/ml of huAbF46 antibody)
- binding result [9]: no binding (tested: 1 to 100 ug/ml of huAbF46 antibody)
- binding result [10]: no binding (tested: 100 nM to 0.39 nM of the peptides)
- binding result [11]: no binding (tested: 100 nM to 0.39 nM of the peptides)
- binding result [12]: no binding (tested: 100 nM to 0.39 nM of the peptides)
- binding result [13]: no binding (tested: 100 nM to 0.39 nM of the peptides)
- binding result [14]: no binding (tested: 100 nM to 0.39 nM of the peptides)

- degree of degradation of c-Met (total c-Met ELISA, MKN45 cells, 5 ug/ml antibody, 24 hours) [1]: ~28%
B3: huAbF46-H4-A3 (antibody, V domains shown)
VH: EVQLVESGGGLVQPGGSLRLSCAASGFTFTDYYMSWVRQAPGKGLEWLGFIRNKANGYTTEYSASVKGRFTISRDNSKNTLYLQMNSLRAEDTAVYYCARDNWFAYWGQGTLVTVSS
VL: DIQMTQSPSSLSASVGDRVTITCKSSQSLLASGNQNNYLAWHQQKPGKAPKMLIIWASTRVSGVPSRFSGSGSGTDFTLTISSLQPEDFATYYCAQSYSHPFSFGQGTKVEIKR

- degree of degradation of c-Met (total c-Met ELISA, MKN45 cells, 5 ug/ml antibody, 24 hours) [1]: ~28%
- fold improvement of affinity (human c-Met protein [15]): 5 times
B4: huAbF46-H4-A2 (antibody, V domains shown)
VH: EVQLVESGGGLVQPGGSLRLSCAASGFTFTDYYMSWVRQAPGKGLEWLGFIRNKANGYTTEYSASVKGRFTISRDNSKNTLYLQMNSLRAEDTAVYYCARDNWFAYWGQGTLVTVSS
VL: DIQMTQSPSSLSASVGDRVTITCKSSQSLLASGNQNNYLAWHQQKPGKAPKMLIIWASTRVSGVPSRFSGSGSGTDFTLTISSLQPEDFATYYCGQSYSRPLTFGQGTKVEIKR
notes: IgG; also called IgG from clone L3-2
